Results reported in publication doi:10.1101/2025.06.13.659407, “Scavenger Receptor class F member 2 is an intracellular receptor for Hepatitis B virus” (bioRxiv, 2025).

Molecular target: biotinylated preS1 peptide 79–108 carrying 89D and 90K (hepatitis B virus (residues numbered …, biotin (position not stated for this peptide)))
Assay: pull-down; 2 µM biotinylated preS1 peptide on Dynabeads MyOne Streptavidin T1, incubated with 2 µg purified protein 1 h at 37°C, washed with PBS 0.01% Tween 20, Western blot (anti-HA or anti-human IgG1); the paper calls it immunoprecipitation (IP-Western)
Details: both partners purified

B1: sEGF4–6-hFc (soluble fusion protein comprising SCARF2's EGF4–6 domains, with an N-terminal HA tag and a C-terminal human IgG1 Fc tag) (Fc fusion)
chain: GSYPYDVPDYAGSSACYCSATSRCDPQTGACLCHAGWWGRSCNNQCACNSSPCEQQSGRCQCRERTFGARCDRYCQCFRGRCHPVDGTCACEPGYRGKYCR
fold efficiency of precipitation against preS1 79–108 QT and QS peptides: ~2 fold
